tested on: Escherichia coli TOP10; test: shrunken log2 fold change of peptide-encoding DNA abundance (4.5 h post-induction vs induction); higher = less antimicrobial activity (less host growth inhibition); details: time post-induction: 4.5 h; library: site-saturation at positions 5, 18, 19, 20
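Further: peptides expressed intracellularly from a pBAD plasmid library in pooled LB shake-flask culture, induced with 0.3% L-arabinose, DNA abundance read by NGS, three biological replicates, DESeq2 with apeglm shrinkage.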

Compared with RRIRYRPPRLPRPRPRPVALPRP, RRIRSRPPRLPRPRPRPTEIPRP is higher in “shrunken log2 fold change” value: -0.404 for the first, -0.0163 for the second.

RRIRARPPRLPRPRPRPWVLPRP and RRIRKRPPRLPRPRPRPWFRPRP are within 0.2 log units of each other in “shrunken log2 fold change” value: -0.0908 for the first, 0.00108 for the second.

RRIRNRPPRLPRPRPRPQEDPRP and RRIRYRPPRLPRPRPRPWRYPRP are within 0.2 log units of each other in “shrunken log2 fold change” value: 0.00256 for the first, 0.026 for the second.

RRIRERPPRLPRPRPRPGHRPRP and RRIRFRPPRLPRPRPRPVSQPRP are within 0.2 log units of each other in “shrunken log2 fold change” value: -0.117 for the first, 0.0413 for the second.

Going from RRIRCRPPRLPRPRPRPVFNPRP to RRIRRRPPRLPRPRPRPPFQPRP, the “shrunken log2 fold change” value rises from -0.204 to 0.746.

Compared with RRIRDRPPRLPRPRPRPWDAPRP, RRIRCRPPRLPRPRPRPDKQPRP is lower in “shrunken log2 fold change” value: 0.207 for the first, -0.0405 for the second.

Compared with RRIRFRPPRLPRPRPRPGNWPRP, RRIRMRPPRLPRPRPRPMGIPRP is lower in “shrunken log2 fold change” value: 0.724 for the first, -0.0393 for the second.

RRIRDRPPRLPRPRPRPSFTPRP and RRIRVRPPRLPRPRPRPFFLPRP are within 0.2 log units of each other in “shrunken log2 fold change” value: -0.404 for the first, -0.294 for the second.

RRIRNRPPRLPRPRPRPTRWPRP and RRIRKRPPRLPRPRPRPLKVPRP are within 0.2 log units of each other in “shrunken log2 fold change” value: 0.292 for the first, 0.237 for the second.

Compared with RRIRERPPRLPRPRPRPFSLPRP, RRIRKRPPRLPRPRPRPVWKPRP is higher in “shrunken log2 fold change” value: -0.2 for the first, 0.138 for the second.

RRIRERPPRLPRPRPRPEDKPRP and RRIRRRPPRLPRPRPRPEENPRP are within 0.2 log units of each other in “shrunken log2 fold change” value: -0.034 for the first, 0.157 for the second.

Going from RRIRKRPPRLPRPRPRPGRWPRP to RRIRIRPPRLPRPRPRPYDLPRP, the “shrunken log2 fold change” value falls from 0.622 to -0.427.

Going from RRIRWRPPRLPRPRPRPDKLPRP to RRIRERPPRLPRPRPRPYCRPRP, the “shrunken log2 fold change” value falls from 0.161 to -0.394.

RRIRERPPRLPRPRPRPAPIPRP and RRIRKRPPRLPRPRPRPMQGPRP are within 0.2 log units of each other in “shrunken log2 fold change” value: 0.0258 for the first, -0.00992 for the second.

RRIRARPPRLPRPRPRPGQKPRP and RRIRQRPPRLPRPRPRPQRVPRP are within 0.2 log units of each other in “shrunken log2 fold change” value: -0.0844 for the first, -0.182 for the second.

Going from RRIRGRPPRLPRPRPRPDCSPRP to RRIRFRPPRLPRPRPRPIISPRP, the “shrunken log2 fold change” value falls from 0.798 to -0.332.

RRIRGRPPRLPRPRPRPVYVPRP and RRIRDRPPRLPRPRPRPILCPRP are within 0.2 log units of each other in “shrunken log2 fold change” value: 0.0272 for the first, 0.0322 for the second.

First: RRIRDRPPRLPRPRPRPYDTPRP
Second: RRIRKRPPRLPRPRPRPMWNPRP
The “shrunken log2 fold change” value of the first is lower: -0.0872 for the first, 0.232 for the second.

Compared with RRIRQRPPRLPRPRPRPHTFPRP, RRIRRRPPRLPRPRPRPPWTPRP is higher in “shrunken log2 fold change” value: -0.174 for the first, 0.443 for the second.

RRIRYRPPRLPRPRPRPVQYPRP and RRIRIRPPRLPRPRPRPWAYPRP are within 0.2 log units of each other in “shrunken log2 fold change” value: -0.0125 for the first, 0.0382 for the second.

First: RRIRERPPRLPRPRPRPINQPRP
Second: RRIRNRPPRLPRPRPRPAPFPRP
The “shrunken log2 fold change” value of the first is lower: -0.734 for the first, -0.299 for the second.

RRIRMRPPRLPRPRPRPWCLPRP and RRIRKRPPRLPRPRPRPRAMPRP are within 0.2 log units of each other in “shrunken log2 fold change” value: -0.208 for the first, -0.107 for the second.

RRIRFRPPRLPRPRPRPWLRPRP and RRIRMRPPRLPRPRPRPHNCPRP are within 0.2 log units of each other in “shrunken log2 fold change” value: -0.0551 for the first, -0.0504 for the second.

Going from RRIRPRPPRLPRPRPRPDYVPRP to RRIRRRPPRLPRPRPRPEGKPRP, the “shrunken log2 fold change” value rises from -0.343 to 0.0207.

RRIRCRPPRLPRPRPRPPFCPRP and RRIRNRPPRLPRPRPRPHQQPRP are within 0.2 log units of each other in “shrunken log2 fold change” value: 0.291 for the first, 0.317 for the second.

First: RRIRKRPPRLPRPRPRPEDCPRP
Second: RRIRFRPPRLPRPRPRPCKYPRP
The “shrunken log2 fold change” value of the first is higher: -0.00264 for the first, -0.373 for the second.

RRIRLRPPRLPRPRPRPWFPPRP and RRIRYRPPRLPRPRPRPKSPPRP are within 0.2 log units of each other in “shrunken log2 fold change” value: -0.157 for the first, 0.0245 for the second.

First: RRIRSRPPRLPRPRPRPSYFPRP
Second: RRIRCRPPRLPRPRPRPDLKPRP
The “shrunken log2 fold change” value of the first is lower: -0.687 for the first, -0.257 for the second.

First: RRIRKRPPRLPRPRPRPCCVPRP
Second: RRIRKRPPRLPRPRPRPRRDPRP
The “shrunken log2 fold change” value of the first is lower: 0.265 for the first, 0.491 for the second.

RRIRIRPPRLPRPRPRPNWFPRP and RRIRVRPPRLPRPRPRPEQRPRP are within 0.2 log units of each other in “shrunken log2 fold change” value: 0.0822 for the first, 0.0562 for the second.

Going from RRIRGRPPRLPRPRPRPIVEPRP to RRIRFRPPRLPRPRPRPVLWPRP, the “shrunken log2 fold change” value rises from 0.194 to 0.577.

Compared with RRIRSRPPRLPRPRPRPEITPRP, RRIRGRPPRLPRPRPRPCWTPRP is higher in “shrunken log2 fold change” value: -0.13 for the first, 0.28 for the second.

First: RRIRVRPPRLPRPRPRPMEYPRP
Second: RRIRMRPPRLPRPRPRPNYKPRP
The “shrunken log2 fold change” value of the first is higher: -0.0697 for the first, -0.504 for the second.

First: RRIRHRPPRLPRPRPRPARCPRP
Second: RRIRPRPPRLPRPRPRPANHPRP
The “shrunken log2 fold change” value of the first is higher: 0.252 for the first, -0.0982 for the second.

RRIRHRPPRLPRPRPRPKVYPRP and RRIRGRPPRLPRPRPRPISIPRP are within 0.2 log units of each other in “shrunken log2 fold change” value: 0.0338 for the first, 0.199 for the second.

Compared with RRIRNRPPRLPRPRPRPKMPPRP, RRIRLRPPRLPRPRPRPMMKPRP is lower in “shrunken log2 fold change” value: 0.341 for the first, -0.0811 for the second.

RRIRHRPPRLPRPRPRPGHWPRP and RRIRPRPPRLPRPRPRPCTDPRP are within 0.2 log units of each other in “shrunken log2 fold change” value: -0.0325 for the first, -0.0332 for the second.

Compared with RRIRIRPPRLPRPRPRPYCCPRP, RRIRVRPPRLPRPRPRPVCLPRP is higher in “shrunken log2 fold change” value: -0.476 for the first, 0.619 for the second.

RRIRWRPPRLPRPRPRPCSMPRP and RRIRQRPPRLPRPRPRPNLIPRP are within 0.2 log units of each other in “shrunken log2 fold change” value: -0.565 for the first, -0.556 for the second.

First: RRIRERPPRLPRPRPRPPATPRP
Second: RRIRIRPPRLPRPRPRPRILPRP
The “shrunken log2 fold change” value of the first is higher: 0.35 for the first, -0.188 for the second.

Going from RRIRSRPPRLPRPRPRPTPYPRP to RRIRVRPPRLPRPRPRPVGVPRP, the “shrunken log2 fold change” value rises from -0.26 to 0.321.

RRIRERPPRLPRPRPRPYTSPRP and RRIRFRPPRLPRPRPRPATQPRP are within 0.2 log units of each other in “shrunken log2 fold change” value: -0.141 for the first, -0.00992 for the second.

Compared with RRIRARPPRLPRPRPRPSHYPRP, RRIRMRPPRLPRPRPRPFGAPRP is higher in “shrunken log2 fold change” value: -0.0225 for the first, 0.329 for the second.

First: RRIRIRPPRLPRPRPRPKIYPRP
Second: RRIRLRPPRLPRPRPRPTKMPRP
The “shrunken log2 fold change” value of the first is lower: -0.581 for the first, 0.0743 for the second.

Compared with RRIRARPPRLPRPRPRPCTAPRP, RRIRRRPPRLPRPRPRPTQPPRP is higher in “shrunken log2 fold change” value: -0.147 for the first, 0.155 for the second.

Going from RRIRDRPPRLPRPRPRPFWNPRP to RRIRERPPRLPRPRPRPSMGPRP, the “shrunken log2 fold change” value falls from -0.28 to -0.817.

Compared with RRIRIRPPRLPRPRPRPTTIPRP, RRIRSRPPRLPRPRPRPMAGPRP is higher in “shrunken log2 fold change” value: -0.578 for the first, 0.119 for the second.

First: RRIRVRPPRLPRPRPRPLTLPRP
Second: RRIRGRPPRLPRPRPRPYNIPRP
The “shrunken log2 fold change” value of the first is lower: -0.416 for the first, -0.2 for the second.

First: RRIRERPPRLPRPRPRPEWAPRP
Second: RRIRVRPPRLPRPRPRPESAPRP
The “shrunken log2 fold change” value of the first is lower: 0.103 for the first, 0.522 for the second.

Compared with RRIRYRPPRLPRPRPRPCRNPRP, RRIRNRPPRLPRPRPRPMIAPRP is lower in “shrunken log2 fold change” value: -0.072 for the first, -0.42 for the second.

RRIRWRPPRLPRPRPRPDMEPRP and RRIRTRPPRLPRPRPRPWDLPRP are within 0.2 log units of each other in “shrunken log2 fold change” value: -0.0114 for the first, 0.12 for the second.

Compared with RRIRGRPPRLPRPRPRPPGVPRP, RRIRCRPPRLPRPRPRPCAHPRP is lower in “shrunken log2 fold change” value: 0.931 for the first, 0.0631 for the second.

Going from RRIRFRPPRLPRPRPRPPVEPRP to RRIRFRPPRLPRPRPRPRSHPRP, the “shrunken log2 fold change” value falls from 0.143 to -0.181.

RRIRVRPPRLPRPRPRPTGEPRP and RRIRSRPPRLPRPRPRPMQAPRP are within 0.2 log units of each other in “shrunken log2 fold change” value: 0.187 for the first, 0.0325 for the second.

With RRIRERPPRLPRPRPRPAEKPRP the “shrunken log2 fold change” value was -0.0431.
